Results taken from patent US20200239593A1 (AIMM THERAPEUTICS B V, published 2020).

Experiments:
[1] = target: T1, snRNP200 (endogenous, from THP-1 cells) (human, UniProt O75643 1-2136); assay: immunoprecipitation from THP-1 membrane lysate, Western blot with mouse-anti-human snRNP200
T1 construct: also called U5-snRNP
Description: FIG. 20A. THP-1 membrane lysate was incubated with AT12-023 and AT13-031, with the influenza-specific antibody AT10-002 or with marker alone.
THP-1 cells were lysed and precleared with an irrelevant antibody (in-house generated RSV antibody D25) and beads to remove non specific binding proteins. Precleared lysate was then incubated with bead-labeled AML-specific antibodies or with the influenza specific antibody AT10-002 as a negative control (3 hrs at 4° C.). Antibody-incubated lysates were washed five times, bound proteins were eluted from the THP-1 lysate and then run on an SDS-PAGE gel. Proteins were blotted and stained with Ponseau S to reveal total protein. The blot was blocked with BSA and incubated with mouse-anti-snRNP200 (Millipore, clone 3B6.1) or Rabbit-anti-HMGB1 (Abcam) for Western blot analysis. Intracelllar staining for snRNP200 was performed after fixing and permeabilizing THP-1 cells with methanol (Sigma) and permeabilization buffer containing triton X-100 (Sigma), EDTA (Gibco) and BSA (Roche), followed by incubation with rabbit-anti-human snRNP200 antibody (Sigma) overnight at 4° C.

[2] = target: T2, snRNP200-flag construct (UniProt O75643 1-2136, limits assumed); assay: capture ELISA: antibody coated, snRNP200-flag lysate (3 ug/ml) captured, anti-flag HRP detection
T2 construct: mature; Used as lysate at 3 ug/ml, not purified; also called full-length snRNP200 with an N-terminal FLAG tag; not shown: N-terminal FLAG tag
Description: FIG. 20B. AML specific antibodies AT12-019, AT12-023, AT13-031 and AT13-037 or commercially available snRNP200-specific antibodies snRNP200 453 and snRNP200 454 were coated on an ELISA plate, incubated with a snRNP200-flag construct for capturing and with anti-flag HRP for detection.
HEK 293T cells were transfected with an expression vector containing the full-length open reading frame of snRNP200 with an N-terminal FLAG tag. At 2 days after transfection cells were harvested and lysed in lysis buffer containing protease inhibitors. This lysate was cleared and protein concentration was measured. AML specific antibodies AT12-019, AT12-023, AT13-031 and AT13-037 or commercially available snRNP200 specific antibodies (Bethyl labs) were then coated on an ELISA plate. The lysate was added at a concentration of 3 μg/ml for capturing. After extensive washing, captured snRNP200-flag was detected with a monoclonal mouse anti-flag HRP antibody (Sigma-Aldrich, clone M2).

T1 sequence (O75643 whole entry): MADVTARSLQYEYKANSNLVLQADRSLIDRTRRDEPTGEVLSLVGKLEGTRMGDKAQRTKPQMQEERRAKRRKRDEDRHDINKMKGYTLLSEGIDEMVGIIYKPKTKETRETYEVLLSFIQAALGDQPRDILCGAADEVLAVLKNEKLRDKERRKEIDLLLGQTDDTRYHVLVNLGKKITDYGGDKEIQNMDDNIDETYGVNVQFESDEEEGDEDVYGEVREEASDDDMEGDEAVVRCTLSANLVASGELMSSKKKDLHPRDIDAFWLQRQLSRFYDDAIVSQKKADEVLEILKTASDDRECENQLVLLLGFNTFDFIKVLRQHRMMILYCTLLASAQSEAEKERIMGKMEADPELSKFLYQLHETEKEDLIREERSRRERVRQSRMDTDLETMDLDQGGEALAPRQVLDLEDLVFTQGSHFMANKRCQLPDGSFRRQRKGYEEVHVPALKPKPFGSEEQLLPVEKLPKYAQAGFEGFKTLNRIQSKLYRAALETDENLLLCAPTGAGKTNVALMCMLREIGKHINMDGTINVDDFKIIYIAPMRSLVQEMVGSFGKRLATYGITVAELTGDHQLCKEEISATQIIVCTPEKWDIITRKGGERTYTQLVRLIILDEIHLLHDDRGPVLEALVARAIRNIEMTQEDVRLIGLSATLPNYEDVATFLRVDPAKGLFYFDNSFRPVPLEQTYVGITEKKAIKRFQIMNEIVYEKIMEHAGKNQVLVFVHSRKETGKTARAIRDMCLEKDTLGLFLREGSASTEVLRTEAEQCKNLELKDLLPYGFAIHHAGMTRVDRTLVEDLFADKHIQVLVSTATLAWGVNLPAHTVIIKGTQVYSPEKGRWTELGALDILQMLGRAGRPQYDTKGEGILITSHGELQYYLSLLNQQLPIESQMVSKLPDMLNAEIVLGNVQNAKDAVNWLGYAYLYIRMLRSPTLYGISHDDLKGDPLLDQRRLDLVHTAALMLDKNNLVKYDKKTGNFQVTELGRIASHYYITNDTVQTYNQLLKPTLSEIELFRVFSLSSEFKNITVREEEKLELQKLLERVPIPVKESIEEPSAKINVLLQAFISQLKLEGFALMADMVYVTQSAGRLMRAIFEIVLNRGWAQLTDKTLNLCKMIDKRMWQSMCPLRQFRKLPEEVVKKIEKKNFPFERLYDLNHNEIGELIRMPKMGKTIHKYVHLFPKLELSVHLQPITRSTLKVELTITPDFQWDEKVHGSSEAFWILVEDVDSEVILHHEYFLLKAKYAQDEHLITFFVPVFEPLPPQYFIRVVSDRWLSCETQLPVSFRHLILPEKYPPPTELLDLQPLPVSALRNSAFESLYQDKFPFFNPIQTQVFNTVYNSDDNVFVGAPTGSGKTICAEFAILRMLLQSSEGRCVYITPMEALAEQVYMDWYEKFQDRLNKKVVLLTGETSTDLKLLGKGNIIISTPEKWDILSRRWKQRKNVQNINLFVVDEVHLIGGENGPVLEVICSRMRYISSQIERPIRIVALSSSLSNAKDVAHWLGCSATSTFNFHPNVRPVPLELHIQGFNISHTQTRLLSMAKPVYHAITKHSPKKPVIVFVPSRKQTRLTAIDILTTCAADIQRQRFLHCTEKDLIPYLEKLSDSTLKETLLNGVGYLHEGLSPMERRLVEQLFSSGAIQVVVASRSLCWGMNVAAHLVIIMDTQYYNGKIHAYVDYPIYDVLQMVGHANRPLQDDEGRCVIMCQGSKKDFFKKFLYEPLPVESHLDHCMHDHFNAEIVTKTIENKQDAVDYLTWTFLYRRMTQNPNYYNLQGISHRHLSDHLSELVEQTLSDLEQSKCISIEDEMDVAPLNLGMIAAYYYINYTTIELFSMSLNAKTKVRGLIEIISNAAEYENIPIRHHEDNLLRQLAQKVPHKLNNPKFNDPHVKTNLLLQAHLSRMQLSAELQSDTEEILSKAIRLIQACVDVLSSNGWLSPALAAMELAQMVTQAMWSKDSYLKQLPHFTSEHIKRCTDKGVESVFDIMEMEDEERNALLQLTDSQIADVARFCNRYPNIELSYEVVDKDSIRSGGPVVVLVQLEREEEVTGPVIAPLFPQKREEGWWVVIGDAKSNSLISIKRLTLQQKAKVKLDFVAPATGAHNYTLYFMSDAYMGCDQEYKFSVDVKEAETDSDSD
T2 sequence (O75643 whole entry): as above

binding result [1]	binding result [2]	Binder
binds	–	AT12-023 (antibody, V domains shown, Human antibody from AML patient donor 59; also called antibody AT12-023) VH: QVQLQQWGAGLLKPSETLSLTCAVYGGSFSGYYWSWIRQPPGKGLEWIGEINHSGSTNYNPSLKSRVTISVDTSKNQFSLKLSSVTAADTAVYYCARGRSTSPLDYYYYYMDVWAKGTTVTVSS VL: SSELTQDPAVSVALGQTVRITCQGDFLRSYYASWYQQKPGQAPVLVIFGKNKRPSGIPDRFSGSSSGNTASLTITGAQAEDEADYYCNSRDRSGNHLVFGGGTKLTVL
–	no binding	AT12-019 (antibody, IgG1, V domains shown, Human antibody from AML patient donor 59; also called antibody AT12-019) VH: EVHLLESGGGLVQPGGSLRLSCAASGFTFSSYAMSWVRQAPGKGLEWVSTIRASGGSTSYADSVKGRFTISRDNSQSRLYLQMNSLTAEDTAVYYCAKSPAMIRGVRGGDYFDYWGQGTLVTVSS VL: AIRLTQSPSSVSASTGDRVTITCRASQAFSSYLVWYQQKPGKAPNLLIYATSTLQGGVPSRFSGSGSGTDFTLTISNLQSEDFATYYCQQYYSYPPTFGQGTKLEIK
